In test [1] the target is T1, G protein-coupled receptor protein ZAQ (human, UniProt Q8TCW9 1-393).
T1 construct: Stably expressed in CHO/dhfr- cells (clone ZAQC-B1); Whole cells in the FLIPR assays; also called ZAQ receptor; ZAQC-B1 cells
Kind of test: displacement of 125I-MIT1 from ZAQC-B1 CHO cell membrane fraction, glass fiber filter binding assay. In general terms: Loss of bound radioactivity is the signal in a displacement assay; it reports binding, not function.

Test [2] has as its target T2, human type I5E receptor protein (human, UniProt Q8NFJ6 1-384).
T2 construct: Stably expressed in CHO/dhfr- cells (clone I5E-4); Whole cells in the FLIPR assays; also called ISE receptor; I5E-4 cell
Kind of test: displacement of 125I-MIT1 from I5E-4 CHO cell membrane fraction, glass fiber filter binding assay.

The target of test [3] is T1, G protein-coupled receptor protein ZAQ. Put plainly: cell-based or functional assay.

As usually defined, the IC50 is the concentration that inhibits the measured activity by half.

T1 sequence (Q8TCW9 whole entry): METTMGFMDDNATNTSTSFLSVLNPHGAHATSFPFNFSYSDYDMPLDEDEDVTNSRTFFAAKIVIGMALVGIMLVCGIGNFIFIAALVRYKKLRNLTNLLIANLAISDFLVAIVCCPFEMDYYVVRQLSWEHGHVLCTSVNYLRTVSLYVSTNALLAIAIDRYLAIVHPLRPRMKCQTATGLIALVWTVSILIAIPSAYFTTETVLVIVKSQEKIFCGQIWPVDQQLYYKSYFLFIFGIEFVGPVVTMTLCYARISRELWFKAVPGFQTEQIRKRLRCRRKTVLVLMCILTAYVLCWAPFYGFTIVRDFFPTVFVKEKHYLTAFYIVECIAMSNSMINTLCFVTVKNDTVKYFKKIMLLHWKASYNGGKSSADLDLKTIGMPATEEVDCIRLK
T2 sequence (Q8NFJ6 whole entry): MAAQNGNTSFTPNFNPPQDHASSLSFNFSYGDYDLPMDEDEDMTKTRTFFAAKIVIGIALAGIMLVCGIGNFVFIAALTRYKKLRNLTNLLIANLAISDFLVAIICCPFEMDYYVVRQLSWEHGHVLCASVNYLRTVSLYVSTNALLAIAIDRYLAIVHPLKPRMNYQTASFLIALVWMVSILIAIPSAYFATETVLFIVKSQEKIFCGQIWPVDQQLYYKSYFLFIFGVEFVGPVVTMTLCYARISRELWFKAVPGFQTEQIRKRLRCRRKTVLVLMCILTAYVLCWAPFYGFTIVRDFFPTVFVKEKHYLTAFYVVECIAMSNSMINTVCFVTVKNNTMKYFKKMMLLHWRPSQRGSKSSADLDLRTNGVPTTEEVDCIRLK

B1: snake venom Mamba Intestinal Toxin 1 (MIT1) (ligand)
peptide: AVITGACERDLQCGKGTCCAVSLWIKSVRVCTPVGTSGEDCHPASHKIPFSGQRMHHTCPCAPNLACVQTSPKKFKCLSK
notes: also called snake venom MIT1; non-labeled MIT1
B1: the results for the IC50 in test [1] and in test [2] were 0.038 nM and 0.032 nM, respectively.

B2: human type ZAQ ligand mature peptide (type G, 86 amino acid residues) (ligand)
peptide: AVITGACERDVQCGAGTCCAISLWLRGLRMCTPLGREGEECHPGSHKVPFFRKRKHHTCPCLPNLLCSRFPDGRYRCSMDLKNINF
notes: also called human type ZAQ ligand peptide; ZAQL-1
In the case of B2, the “increase of the intracellular calcium ion concentration (FLIPR), EC50” value in test [3] stood at 0.096 nM. Besides, the IC50 is 0.035 nM in test [1] and 0.093 nM in test [2].

The values are drawn from US20040077535A1 (Takeda / Millennium, published 2004).
